Assay results published in PMC10985028 (Acta Pharmaceutica Sinica. B, 2024).

Molecular target: T1, HA-tagged USP48 (human, UniProt Q86UV5 1-1035)
T1 sequence (looked up): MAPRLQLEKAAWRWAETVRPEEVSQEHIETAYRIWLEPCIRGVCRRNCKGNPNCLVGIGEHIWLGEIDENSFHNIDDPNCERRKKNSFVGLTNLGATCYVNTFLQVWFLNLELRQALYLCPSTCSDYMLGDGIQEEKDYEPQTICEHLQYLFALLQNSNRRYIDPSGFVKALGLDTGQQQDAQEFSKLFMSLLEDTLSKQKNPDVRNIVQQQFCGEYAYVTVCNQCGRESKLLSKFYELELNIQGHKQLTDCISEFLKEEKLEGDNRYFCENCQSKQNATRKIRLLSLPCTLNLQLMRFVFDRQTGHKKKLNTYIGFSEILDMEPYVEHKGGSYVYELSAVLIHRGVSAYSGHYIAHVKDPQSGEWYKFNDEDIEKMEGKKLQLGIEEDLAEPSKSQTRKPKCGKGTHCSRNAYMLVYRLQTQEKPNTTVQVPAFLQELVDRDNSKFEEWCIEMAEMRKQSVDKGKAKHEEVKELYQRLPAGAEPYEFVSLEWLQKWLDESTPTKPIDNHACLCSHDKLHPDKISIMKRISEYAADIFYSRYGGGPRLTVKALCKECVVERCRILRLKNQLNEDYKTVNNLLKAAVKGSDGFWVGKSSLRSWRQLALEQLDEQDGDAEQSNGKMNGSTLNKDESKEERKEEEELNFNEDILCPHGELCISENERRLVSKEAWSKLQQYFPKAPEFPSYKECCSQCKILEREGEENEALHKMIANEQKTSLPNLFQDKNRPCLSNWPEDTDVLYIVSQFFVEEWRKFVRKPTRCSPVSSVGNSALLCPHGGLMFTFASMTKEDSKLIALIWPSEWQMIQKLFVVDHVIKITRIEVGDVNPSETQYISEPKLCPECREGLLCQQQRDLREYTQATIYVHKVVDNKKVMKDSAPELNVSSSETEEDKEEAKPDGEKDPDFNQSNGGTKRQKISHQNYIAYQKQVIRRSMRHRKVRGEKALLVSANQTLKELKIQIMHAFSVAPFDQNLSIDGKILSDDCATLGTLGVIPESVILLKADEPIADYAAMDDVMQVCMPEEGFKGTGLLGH
Assay: pull-down

binding result: binds
B1: GST-HMGA2 (natural protein, human, UniProt P52926 1-109, looked up)
chain: MSARGEGAGQPSTSAQGQPAAPAPQKRGRGRPRKQQQEPTGEPSPKRPRGRPKGSKNKSPSKAAQKKAEATGEKRPRGRPRKWPQQVVQKKPAQEETEETSSQESAEED
